Results taken from patent publication US20140005098A1 (INSERM INSTITUT NATIONAL DE LA SANT ET DE LA RECHERCHE M …, published 2014).

Target: T1, IGF-II (UniProt P01344 25-91)
T1 construct: also called biotinylated IGF-II (tracer form)
Assay: solid-phase displacement of biotinylated IGF-II tracer (Example 5, to which the sentence points); reference: unfused mini-IGFBP-3
Method: A solid-phase assay was used to study the binding affinity of mini-IGFBP-3-Fc for IGF-II. In this assay, two binding proteins (mini-IGFBP-3 and mini-IGFBP-3-Fc) were immobilized to a support. They were incubated with the biotinylated IGF-II tracer, and then increasing concentrations of IGF-II were added.

T1 sequence (P01344 25-91 limits assumed): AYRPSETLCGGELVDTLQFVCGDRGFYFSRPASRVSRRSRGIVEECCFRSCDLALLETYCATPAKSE

- fold apparent affinity (IC50) against IGFBP-3 derivatives not fused to IgG1 Fc: 7 fold
B1: mini-IGFBP-3-Fc (mini-IGFBP-3-FcIgG1 fusion protein, immunoadhesin) (Fc fusion, human)
chain: GASSAGLGPVVRCEPCDARALAQCAPPPAVCAELVREPGCGCCLTCALSEGQPCGIYTERCGSGLRCQPSPDEARPLQALLDGRGLCVNASAVSGGGSGGSGGSGGSGGETEYGPCRREMEDTLNHLKFLNVLSPRGVHIPNCDKKGFYKKKQCRPSKGRKRGFCWCVDKYGQPLPGYTTKGKEDVHCYSMQSK
notes: range 1-94;range 180-264; also called mini-IGFBP-3 immunoadhesin; not shown: Fc fragment of human IgG1 from the pYM-Fc-IgG1 vector
